Measurements taken from patent publication US20260256936A1, “BIOACTIVE CONJUGATES, PREPARATION METHOD AND USE THEREOF” (priority 2023, published 2026).
Read-outs that look alike come from different tables or passages of the source.

T1: CLL1 on CLL1-expressing cells (U937, HL60) (human, UniProt Q5QGZ9 1-265)
T1 sequence (looked up): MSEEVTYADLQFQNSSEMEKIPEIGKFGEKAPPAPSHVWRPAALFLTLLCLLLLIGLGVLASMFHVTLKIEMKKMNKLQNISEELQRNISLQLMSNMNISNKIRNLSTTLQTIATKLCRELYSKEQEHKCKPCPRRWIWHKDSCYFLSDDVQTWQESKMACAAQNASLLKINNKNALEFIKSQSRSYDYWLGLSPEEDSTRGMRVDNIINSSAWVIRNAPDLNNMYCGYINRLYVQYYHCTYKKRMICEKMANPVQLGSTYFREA

T2: B7H3 on B7H3-expressing cells (NCI-H358, NCI-H1048) (human, UniProt Q5ZPR3 29-534)
T2 sequence (looked up): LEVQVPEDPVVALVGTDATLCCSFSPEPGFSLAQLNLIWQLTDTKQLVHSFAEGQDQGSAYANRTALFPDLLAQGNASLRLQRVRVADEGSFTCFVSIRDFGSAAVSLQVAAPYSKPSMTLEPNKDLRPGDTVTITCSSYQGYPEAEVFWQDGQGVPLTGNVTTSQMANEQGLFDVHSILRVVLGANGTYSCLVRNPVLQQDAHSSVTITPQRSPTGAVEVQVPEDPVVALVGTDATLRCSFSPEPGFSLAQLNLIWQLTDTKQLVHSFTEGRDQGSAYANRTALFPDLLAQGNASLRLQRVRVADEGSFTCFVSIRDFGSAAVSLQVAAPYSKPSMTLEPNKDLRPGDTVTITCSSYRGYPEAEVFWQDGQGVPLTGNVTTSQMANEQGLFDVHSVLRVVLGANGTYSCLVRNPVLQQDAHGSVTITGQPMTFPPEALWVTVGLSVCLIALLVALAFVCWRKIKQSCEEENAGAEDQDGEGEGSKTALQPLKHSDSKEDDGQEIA


Experiments:
Assay in all cases: cell-based or functional assay
[1] = target: T1, CLL1 on CLL1-expressing cells (U937, …)
[2] = target: T1, CLL1 on CLL1-expressing cells (U937, …); remark: listed apart in the source
[3] = target: T1, CLL1 on CLL1-expressing cells (U937, …); remark: listed apart in the source
[4] = target: T1, CLL1 on CLL1-expressing cells (U937, …); remark: listed apart in the source
[5] = target: T1, CLL1 on CLL1-expressing cells (U937, …); remark: listed apart in the source
[6] = target: T2, B7H3 on B7H3-expressing cells …

| Binder | EC50 (nM) direct cellular killing, HL60 [1] [nM] | EC50 (nM) direct cellular killing, U937 [1] [nM] | EC50 (nM) direct cellular killing, HL60 [2] [nM] | EC50 (nM) direct cellular killing, U937 [2] [nM] | EC50 (nM) direct cellular killing, HL60 [3] [nM] | EC50 (nM) direct cellular killing, HL60 [4] [nM] | EC50 (nM) direct cellular killing, HL60 [5] [nM] | EC50 (nM) direct cellular killing, U937 [5] [nM] | EC50 (nM) direct cellular killing, NCI-H358 [6] [nM] | EC50 (nM) direct cellular killing, NCI-H1048 [6] [nM] |
| --- | --- | --- | --- | --- | --- | --- | --- | --- | --- | --- |
| ADC3-A (antibody, human IgG1, kappa, V domains shown, conjugator-linker-payload on cysteine thiols after TCEP reduction; positions not given) VH: EVQLVQSGAEVKKPGASVKVSCKASGYSFTDYYMHWVRQAPGQGLEWIGRINPYAGAAFYSQNFKDRVTLTVDTSTSTAYLELSSLRSEDTAVYYCAIERGADLEGYAMDYWGQGTLVTVSS VL: DIQMTQSPSSLSASVGDRVTITCRASQSVSTSSYNYMHWYQQKPGKPPKLLIKYASNLESGVPSRFSGSGSGTDFTLTISSLQPEDFATYYCQHSWEIPLTFGQGTKVEIKR | 10.9 | 0.7 | 6.3 | 0.8 | 4.8 | 6.5 | 1.4 | 0.7 | – | – |
| ADC3-15 (antibody, human IgG1, kappa, V domains shown, conjugator-linker-payload on cysteine thiols after TCEP reduction; positions not given) VH: EVQLVQSGAEVKKPGASVKVSCKASGYSFTDYYMHWVRQAPGQGLEWIGRINPYAGAAFYSQNFKDRVTLTVDTSTSTAYLELSSLRSEDTAVYYCAIERGADLEGYAMDYWGQGTLVTVSS VL: DIQMTQSPSSLSASVGDRVTITCRASQSVSTSSYNYMHWYQQKPGKPPKLLIKYASNLESGVPSRFSGSGSGTDFTLTISSLQPEDFATYYCQHSWEIPLTFGQGTKVEIKR | 6.5 | 0.3 | – | – | – | – | – | – | – | – |
| ADC3-B (antibody, human IgG1, kappa, V domains shown, conjugator-linker-payload on cysteine thiols after TCEP reduction; positions not given) VH: QVQLVQSGAEVKKPGSSVKVSCKASGYTFTNYVMHWVRQAPGQGLEWMGYINPYNDDVKYNEKFKGRVTITADESTSTAYMELSSLRSEDTAVYYCARWGYYGSPLYYFDYWGQGTLVTVSS VL: EIVLTQSPATLSLSPGERATLSCRASSRLIYMHWYQQKPGQAPRPLIYATSNLASGIPARFSGSGSGTDFTLTISSLEPEDFAVYYCQQWNSNPPTFGQGTKVEIKR | – | – | – | – | – | – | – | – | 0.1 | 0.2 |
